In article PMC7187728 (Biochemistry, 2018):

Columns and labels:
[1] = tested on: O=C(O)CCC(=O)C1=CC=C[C@@H](O)[C@@H]1C(=O)O; experiment: purified protein; assay type: biochemical, Alicyclobacillus acidocaldarius; details: 50 mM Tris pH 8.0, 0.1 mM MnCl2, 25 °C
AaOSBS = biological target: T1, AaOSBS (Alicyclobacillus acidocaldarius, UniProt Z9M799VK71); experiment: inhibition of OSBS activity, SHCHC loss at […] nm; assay type: biochemical
T1 sequence (Z9M799VK71 4-380): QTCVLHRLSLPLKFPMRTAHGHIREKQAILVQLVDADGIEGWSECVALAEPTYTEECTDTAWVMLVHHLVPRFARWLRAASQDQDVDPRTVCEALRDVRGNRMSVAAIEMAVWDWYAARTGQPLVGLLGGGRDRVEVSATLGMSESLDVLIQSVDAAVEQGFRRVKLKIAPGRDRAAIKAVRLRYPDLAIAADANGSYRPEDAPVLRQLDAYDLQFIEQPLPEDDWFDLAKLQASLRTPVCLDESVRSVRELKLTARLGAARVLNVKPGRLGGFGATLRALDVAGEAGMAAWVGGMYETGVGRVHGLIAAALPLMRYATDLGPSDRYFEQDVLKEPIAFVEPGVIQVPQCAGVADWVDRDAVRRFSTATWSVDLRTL

purified protein [2] = substrate: O=C(O)CCC(=O)N[C@@H](C(=O)O)c1ccccc1; experiment: purified protein; assay type: biochemical, Amycolatopsis mediterranei; details: 200 mM Tris pH 8.0, 0.1 mM MnCl2
purified protein [3] = substrate: O=C(O)CCC(=O)C1=CC=C[C@@H](O)[C@@H]1C(=O)O; experiment: purified protein; assay type: biochemical, Amycolatopsis mediterranei; details: 50 mM Tris pH 8.0, 0.1 mM MnCl2, 25 °C
purified protein [4] = substrate: O=C(O)CCC(=O)N[C@@H](C(=O)O)c1ccccc1; experiment: purified protein; assay type: biochemical, Roseiflexus castenholzii; details: 200 mM Tris pH 8.0, 0.1 mM MnCl2
purified protein [5] = substrate: O=C(O)CCC(=O)C1=CC=C[C@@H](O)[C@@H]1C(=O)O; experiment: purified protein; assay type: biochemical, Roseiflexus castenholzii; details: 50 mM Tris pH 8.0, 0.1 mM MnCl2, 25 °C

AaOSBS (Alicyclobacillus acidocaldarius)
Km [1]: 118 ± 18 µM | kcat [1]: 64 ± 3 s⁻¹ | kcat/Km [1]: 540000 M⁻¹ s⁻¹

O=C(O)CCC(=O)N[C@H](C(=O)O)c1ccccc1 [L-NSPG, N-succinyl-L-phenylglycine]
Ki (AaOSBS): 2.6 ± 0.4 mM

O=C(O)CCC(=O)N[C@@H](C(=O)O)c1ccccc1 [D-NSPG, N-succinyl-D-phenylglycine]
Ki (AaOSBS): 3.6 ± 0.4 mM

B1: AmedNSAR (Amycolatopsis mediterranei S699) (protein)
chain: MKLTGVELLRVRMPLVAPFRTSFGTQAERELLLLRAVTSEGEGWGECGAMAGPLYSAEYIDGVEHVLQAFLVPALLAAGDLTAHKVAPLLAKFKGHRMAKAALEMAVLDAELRAHGLSFGTALGSTSDSVPCGVSVGIMDSIPQLVDVVGGYLDAGYLRIKLKIEPGWDVEPVRAVRERFGDDILLQVDANTAYTLSDVPQLQRLDPFGLLLIEQPLEEEDVLGHAELARHLRTPICLDETVVSAASAAAAIRLGACRIVNIKPSRVGGYLEARRVHDVCAAHGIPVWCGGMLETGLGRAANVALASLPGFTLPGDTSASDRFYRTDITEPFVLEAGRLPVPSGPGLGVTPIPERLAEVTTAKSWLA
Km (purified protein [2]): 2800 ± 550 µM | kcat (purified protein [2]): 74 ± 7 s⁻¹ | kcat/Km (purified protein [2]): 26000 M⁻¹ s⁻¹ | Km (purified protein [3]): 415 ± 39 µM | kcat (purified protein [3]): 242 ± 11 s⁻¹ | kcat/Km (purified protein [3]): 580000 M⁻¹ s⁻¹

B2: RcNSAR/OSBS (Roseiflexus castenholzii DSM 13941) (protein)
chain: MKIESITLHHIDMPLVAPFETSFGRETHRPCILIEMRADGLTGWGECVAGAGPWYAYETIGTAWHIISDFLAPMIVGQEITEPIGIVERFASVRGHPMARAAVEAAFWDLYAQARGVSLARLIGATRDRVTVGVSVGIELTLEAQLASIERFVAAGYARIKLKIKPGWDVAVVRAVRERWPDIALQVDANSAYTPDDAPIFRELDEMNLLLIEQPLHHDDIVDHARLQAQISTPICLDESIHSPEHARWALDIDACRVINIKIGRVGGLTAARQIHDLCAERGVPVWCGGMLETNVGRAVNLALAALPNFALPGDISASARYYHRDIAAPDFVLNDDSTITVPDTPGTGVAVLPERLRDVQVREVIIGKG
Km (purified protein [4]): 1800 ± 230 µM | kcat (purified protein [4]): 15 ± 4 s⁻¹ | kcat/Km (purified protein [4]): 8300 M⁻¹ s⁻¹ | Km (purified protein [5]): 155 ± 22 µM | kcat (purified protein [5]): 38 ± 3 s⁻¹ | kcat/Km (purified protein [5]): 250000 M⁻¹ s⁻¹
